In experiment [1] the target is T1, TRAIL-Receptor 1-Fc (R&D Systems) (UniProt O00220 24-239, limits assumed).
T1 construct: Bought reagent; also called Fc-fusion protein of TRAIL-Receptor 1; not shown: Fc part of the bought fusion
T1 sequence (looked up): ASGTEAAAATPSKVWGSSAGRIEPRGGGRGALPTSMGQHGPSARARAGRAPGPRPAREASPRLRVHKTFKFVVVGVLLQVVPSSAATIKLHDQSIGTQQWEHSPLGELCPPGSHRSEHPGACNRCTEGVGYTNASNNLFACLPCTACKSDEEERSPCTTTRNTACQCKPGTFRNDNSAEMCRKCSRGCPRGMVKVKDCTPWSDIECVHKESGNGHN
Description: Streptactin-ELISA, purified trimeric ligand immobilized via Strep-tag II, receptor-Fc detection. How it is done: (§1) To determine the binding of receptors to constructed ligands, streptactin-coated 96-well microplates were used. Therefore, supernatants from transiently transfected HEK293 cells, mouse sera or purified proteins were immobilized on streptactin-plates (IBA GmbH) for 1-3 hours in PBS. Samples were diluted in ELISA binding/blocking buffer (PBS, 0.1% Tween-20, 20% SuperBlock T20-PBS (Pierce)). Plates were washed with PBS+0.1% Tween-20 and incubated with mouse-anti-TRAIL antibody (Pharmingen, clone RIK-2), TRAIL-Receptor 1-Fc (R&D Systems), TRAIL-Receptor 2-Fc (R&D Systems), TACl-Fc (R&D Systems) or HVEM-Fc (R&D Systems) for one hour at room temperature. Plates were again washed and Fc-proteins were detected with anti-human- or anti-mouse-Fc-specific peroxidase-conjugated antibodies (Sigma). Colour reaction was done by addition of 100 μl per well of TMB substrate (Kem-En-Tec Diagnostics) and the absorbance at 450 nm and 630 nm was determined with an ELISA reader after addition of 25 μl of 25% H₂SO₄ as stop-solution. Values were calculated as 450 nm-630 nm with MS Excel.
Varying concentrations (0-10 microgram/ml) of affinity and SEC purified, trimeric LIGHT-ASPD were used for immobilized via the Strep-tag II on Streptactin-coated microplates. LIGHT-ASPD was then detected in a ELISA set-up using 100 ng/ml of Fc-fusion proteins of the receptors HVEM and TRAIL-Receptor 1, respectively. […]

The target of experiment [2] is T1, TRAIL-Receptor 1-Fc (R&D Systems). Kind of experiment: Streptactin-ELISA (FIG. 14A), supernatant immobilized, constant concentration of TRAIL-Receptor 1-Fc. On the procedure:
as §1
The selectivity of TRAIL-Receptor 1 or TRAIL-Receptor 2 towards fusion proteins of SPD/ccSPD and TRAIL, TRAILR1mut and TRAILR2mut was shown by Streptactin-ELISA. Therefore, TRAIL-SPD-fusion proteins in supernatants from transiently transfected HEK293 cells were immobilized on Streptactin coated microplates. Cell supernatant from untransfected cells served as negative control. Specifically bound proteins were detected with constant (A, B) or varying (C, D) concentrations of either TRAIL-Receptor 1-Fc or TRAIL-Receptor 2-Fc. As shown in (A), the ligand TRAILR1mut fused to SPD variants is deteced by TRAIL-Receptor 1, whereas the ligand TRAILR2mut is not. As shown in (B), the ligand TRAILR2mut is preferentially detected by TRAIL-Receptor 2, whereas TRAILR1mut-and TRAIL wild-type constructs are equally well detected. As shown in C, TRAIL-Receptor 1-Fc bound to TRAIL-R1 mut-ASPD and TRAIL-ASPD equally well over the whole receptor titration range, whereas TRAIL-R2mut-ASPD is not detected. As shown in D, TRAIL-Receptor 2-Fc bound to TRAIL-R2mut-ASPD and TRAIL-ASPD equally well over the receptor titration range analyzed, whereas the signal for TRAIL-R1mut-ASPD decreased rapidely with decreasing concentrations of receptor.

B1: LIGHT-ASPD (ligand)
chain: EVNPAAHLTGANSSLTGSGGPLLWETQLGLAFLRGLSYHDGALVVTKAGYYYIYSKVQLGGVGCPLGLASTITHGLYKRTPRYPEELELLVSQQSPCGRATSSSRVWWDSSFLGGVVHLEAGEEVVVRVLDERLVRLRDGTRSYFGAFMVGSSGSSGSSGSGLPDVASLRQQVEALQGQVQHLQAAFSQYKKVELFPNGQSVGEKIFKTAGFVKPFTEAQLLCTQAGGQLASPRSAAENAALQQLVVAKNEAAFLSMTDSKTEGKFTYPTGESLVYSNWAPGEPNDDGGSEDCVEIFTNGKWNDRACGEKRLVVCEFGGSPSSSSSSAWSHPQFEK
notes: also called Sp-LIGHT-ASPD; LIGHT fusion protein
Turning to B1, the binding result in experiment [1] is “no binding”.

B2: TRAILR2mut-ASPD (ligand)
chain: QRVAAHITGTRGRSNTLSSPNSKNEKALGRKINSWESSRSGHSFLSNLHLRNGELVIHEKGFYYIYSQTQFKFREEIKENTKNDKQMVQYIYKYTSYPDPILLMKSARNSCWSKDAEYGLYSIYQGGIFELKENDRIFVSVTNERLLQMDHEASFFGAFLVGSSGSSGSSGSGLPDVASLRQQVEALQGQVQHLQAAFSQYKKVELFPNGQSVGEKIFKTAGFVKPFTEAQLLCTQAGGQLASPRSAAENAALQQLVVAKNEAAFLSMTDSKTEGKFTYPTGESLVYSNWAPGEPNDDGGSEDCVEIFTNGKWNDRACGEKRLVVCEFGGSPSSSSSSAWSHPQFEK
notes: TRAIL-Receptor 2 selective mutein; homotrimer by SEC; also called Sp-TRAILR2mut-ASPD
On to B2, for which the binding result in experiment [2] is given as “no binding”.

B3: TRAILR2mut-D-CCSPD (ligand)
chain: QRVAAHITGTRGRSNTLSSPNSKNEKALGRKINSWESSRSGHSFLSNLHLRNGELVIHEKGFYYIYSQTQFKFREEIKENTKNDKQMVQYIYKYTSYPDPILLMKSARNSCWSKDAEYGLYSIYQGGIFELKENDRIFVSVTNERLLQMDHEASFFGAFLVGSGLPDVASLRQQVEALQGQVQHLQAAFSQYKKVELFPNGPSSSSSSAWSHPQFEK
notes: it is assembled from the construct description; also called TRAILR2mut (member of the SPD variants)
B3: in experiment [2], the binding result is on record as “no binding”.

B4: TRAILR2mut-D-SPD (ligand)
chain: QRVAAHITGTRGRSNTLSSPNSKNEKALGRKINSWESSRSGHSFLSNLHLRNGELVIHEKGFYYIYSQTQFKFREEIKENTKNDKQMVQYIYKYTSYPDPILLMKSARNSCWSKDAEYGLYSIYQGGIFELKENDRIFVSVTNERLLQMDHEASFFGAFLVGSGLPDVASLRQQVEALQGQVQHLQAAFSQYKKVELFPNGQSVGEKIFKTAGFVKPFTEAQLLCTQAGGQLASPRSAAENAALQQLVVAKNEAAFLSMTDSKTEGKFTYPTGESLVYSNWAPGEPNDDGGSEDCVEIFTNGKWNDRACGEKRLVVCEFGGSPSSSSSSAWSHPQFEK
notes: as for B3
Turning to B4, the binding result in experiment [2] is on record as “no binding”.

B5: TRAILR2mut-A-CCSPD (ligand)
chain: QRVAAHITGTRGRSNTLSSPNSKNEKALGRKINSWESSRSGHSFLSNLHLRNGELVIHEKGFYYIYSQTQFKFREEIKENTKNDKQMVQYIYKYTSYPDPILLMKSARNSCWSKDAEYGLYSIYQGGIFELKENDRIFVSVTNERLLQMDHEASFFGAFLVGSSGSSGSSGSGLPDVASLRQQVEALQGQVQHLQAAFSQYKKVELFPNGPSSSSSSAWSHPQFEK
notes: as for B3
As to B5, the binding result in experiment [2] is listed as “no binding”.
